Measured values reported in the supplement of paper PMC11908140.

B1: library; numbered along this chain (parent)
chain: MRKPRAAVGSGHRKQAASQEGRQKHAKNNSQAKPSACDGLARQPEEVVLQASVSSYHLFRDVAEVTAFRGSLLSWYDQEKRDLPWRRRAEDEMDLDRRAYAVWVSEVMLQQTQVATVINYYTGWMQKWPTLQDLASASLEEVNQLWAGLGYYSRGRRLQEGARKVVEELGGHMPRTAETLQQLLPGVGRYTAGAIASIAFGQATGVVDGNVARVLCRVRAIGADPSSTLVSQQLWGLAQQLVDPARPGDFNQAAMELGATVCTPQRPLCSQCPVESLCRARQRVEQEQLLASGSLSGSPDVEECAPNTGQCHLCLPPSEPWDQTLGVVNFPRKASRKPPREESSATCVLEQPGALGAQILLVQRPNSGLLAGLWEFPSVTWEPSEQLQRKALLQELQRWAGPLPATHLRHLGEVVHTFSHIKLTYQVYGLALEGQTPVTTVPPGARWLTQEEFHTAAVSTAMKKVFRVYQGQQPGTCMGSKRSQVSSPCSRKKPRMGQQVLDNFFRSHISTDAHSLNSAAQ

Variants of: B1
Test: 8OG:A repair function score (normalized; synonymous = 0, nonsense = -1) (normalized log-likelihood score); higher = more repair activity (WT-like)
Settings: with 8OG:A DNA repair reporter (GFP) in HEK-293 MUTYH KO cells
In short: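 With 10 pg/ml doxycycline, MUTYH knockout HEK-293 cells carrying lentiviral MUTYH cDNA NNN codon-scan libraries were co-transfected with mCherry and an 8OG:A GFP repair reporter. Viable mCherry+ cells were sorted into GFP+ (repair) and GFP− bins at 72 h, three replicates per tile, and tile amplicons were sequenced. Per-tile Rosace fitness scores were then normalized into a repair function score anchored on synonymous and nonsense distributions. Medians were fixed at 0 for synonymous and -1 for nonsense, excluding variants under 300 counts per million at the start.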

Variant	8OG:A repair function score
MRKPRAAVGSGHRKQAASQEGRQKHAKNNSQAKPSACDGLARQPEEVVLQASVSSYHLFRDVAEVTAFRGSLLSWYDQEKRDLPWRRRAEDEMDLDRRAYAVWVSEVMLQQTQVATVINYYTGWMQKWPTLQDLASASLEEVNQLWAGLGYYSRGRRLQEGARKVVEELGGHMPRTAETLQQLLPGVGRYTAGAIASIAFGQATGVVDGNVARVLCRVRAIGADPSSTLVSQQLWGLAQQLVDPARPGDFNQAAMELGATVCTPQRPLCSQCPVESLCRARQRVEQEQYLASGSLSGSPDVEECAPNTGQCHLCLPPSEPWDQTLGVVNFPRKASRKPPREESSATCVLEQPGALGAQILLVQRPNSGLLAGLWEFPSVTWEPSEQLQRKALLQELQRWAGPLPATHLRHLGEVVHTFSHIKLTYQVYGLALEGQTPVTTVPPGARWLTQEEFHTAAVSTAMKKVFRVYQGQQPGTCMGSKRSQVSSPCSRKKPRMGQQVLDNFFRSHISTDAHSLNSAAQ [L289Y]	-0.00792
MRKPRAAVGSGHRKQAASQEGRQKHAKNNSQAKPSACDGLARQPEEVVLQASVSSYHLFRDVAEVTAFRGSLLSWYDQEKRDLPWRRRAEDEMDLDRRAYAVWVSEVMLQQTQVATVINYYTGWMQKWPTLQDLASASLEEVNQLWAGLGYYSRGRRLQEGARKVVEELGGHMPRTAETLQQLLPGVGRYTAGAIASIAFGQATGVVDGNVARVLCRVRAIGADPSSTLVSQQLWGLAQQLVDPARPGDFNQAAMELGATVCTPQRPLCSQCPVESLCRARQRVEQEQLEASGSLSGSPDVEECAPNTGQCHLCLPPSEPWDQTLGVVNFPRKASRKPPREESSATCVLEQPGALGAQILLVQRPNSGLLAGLWEFPSVTWEPSEQLQRKALLQELQRWAGPLPATHLRHLGEVVHTFSHIKLTYQVYGLALEGQTPVTTVPPGARWLTQEEFHTAAVSTAMKKVFRVYQGQQPGTCMGSKRSQVSSPCSRKKPRMGQQVLDNFFRSHISTDAHSLNSAAQ [L290E]	-0.0564
MRKPRAAVGSGHRKQAASQEGRQKHAKNNSQAKPSACDGLARQPEEVVLQASVSSYHLFRDVAEVTAFRGSLLSWYDQEKRDLPWRRRAEDEMDLDRRAYAVWVSEVMLQQTQVATVINYYTGWMQKWPTLQDLASASLEEVNQLWAGLGYYSRGRRLQEGARKVVEELGGHMPRTAETLQQLLPGVGRYTAGAIASIAFGQATGVVDGNVARVLCRVRAIGADPSSTLVSQQLWGLAQQLVDPARPGDFNQAAMELGATVCTPQRPLCSQCPVESLCRARQRVEQEQLDASGSLSGSPDVEECAPNTGQCHLCLPPSEPWDQTLGVVNFPRKASRKPPREESSATCVLEQPGALGAQILLVQRPNSGLLAGLWEFPSVTWEPSEQLQRKALLQELQRWAGPLPATHLRHLGEVVHTFSHIKLTYQVYGLALEGQTPVTTVPPGARWLTQEEFHTAAVSTAMKKVFRVYQGQQPGTCMGSKRSQVSSPCSRKKPRMGQQVLDNFFRSHISTDAHSLNSAAQ [L290D]	-0.0753
MRKPRAAVGSGHRKQAASQEGRQKHAKNNSQAKPSACDGLARQPEEVVLQASVSSYHLFRDVAEVTAFRGSLLSWYDQEKRDLPWRRRAEDEMDLDRRAYAVWVSEVMLQQTQVATVINYYTGWMQKWPTLQDLASASLEEVNQLWAGLGYYSRGRRLQEGARKVVEELGGHMPRTAETLQQLLPGVGRYTAGAIASIAFGQATGVVDGNVARVLCRVRAIGADPSSTLVSQQLWGLAQQLVDPARPGDFNQAAMELGATVCTPQRPLCSQCPVESLCRARQRVEQEQLCASGSLSGSPDVEECAPNTGQCHLCLPPSEPWDQTLGVVNFPRKASRKPPREESSATCVLEQPGALGAQILLVQRPNSGLLAGLWEFPSVTWEPSEQLQRKALLQELQRWAGPLPATHLRHLGEVVHTFSHIKLTYQVYGLALEGQTPVTTVPPGARWLTQEEFHTAAVSTAMKKVFRVYQGQQPGTCMGSKRSQVSSPCSRKKPRMGQQVLDNFFRSHISTDAHSLNSAAQ [L290C]	-0.0194
MRKPRAAVGSGHRKQAASQEGRQKHAKNNSQAKPSACDGLARQPEEVVLQASVSSYHLFRDVAEVTAFRGSLLSWYDQEKRDLPWRRRAEDEMDLDRRAYAVWVSEVMLQQTQVATVINYYTGWMQKWPTLQDLASASLEEVNQLWAGLGYYSRGRRLQEGARKVVEELGGHMPRTAETLQQLLPGVGRYTAGAIASIAFGQATGVVDGNVARVLCRVRAIGADPSSTLVSQQLWGLAQQLVDPARPGDFNQAAMELGATVCTPQRPLCSQCPVESLCRARQRVEQEQLGASGSLSGSPDVEECAPNTGQCHLCLPPSEPWDQTLGVVNFPRKASRKPPREESSATCVLEQPGALGAQILLVQRPNSGLLAGLWEFPSVTWEPSEQLQRKALLQELQRWAGPLPATHLRHLGEVVHTFSHIKLTYQVYGLALEGQTPVTTVPPGARWLTQEEFHTAAVSTAMKKVFRVYQGQQPGTCMGSKRSQVSSPCSRKKPRMGQQVLDNFFRSHISTDAHSLNSAAQ [L290G]	-0.0171
MRKPRAAVGSGHRKQAASQEGRQKHAKNNSQAKPSACDGLARQPEEVVLQASVSSYHLFRDVAEVTAFRGSLLSWYDQEKRDLPWRRRAEDEMDLDRRAYAVWVSEVMLQQTQVATVINYYTGWMQKWPTLQDLASASLEEVNQLWAGLGYYSRGRRLQEGARKVVEELGGHMPRTAETLQQLLPGVGRYTAGAIASIAFGQATGVVDGNVARVLCRVRAIGADPSSTLVSQQLWGLAQQLVDPARPGDFNQAAMELGATVCTPQRPLCSQCPVESLCRARQRVEQEQLFASGSLSGSPDVEECAPNTGQCHLCLPPSEPWDQTLGVVNFPRKASRKPPREESSATCVLEQPGALGAQILLVQRPNSGLLAGLWEFPSVTWEPSEQLQRKALLQELQRWAGPLPATHLRHLGEVVHTFSHIKLTYQVYGLALEGQTPVTTVPPGARWLTQEEFHTAAVSTAMKKVFRVYQGQQPGTCMGSKRSQVSSPCSRKKPRMGQQVLDNFFRSHISTDAHSLNSAAQ [L290F]	-0.0363
